In the nanobody polyreactivity screen of Harvey et al. (2022):

Assay: yeast display, Sf9 membrane polyspecificity reagent, FACS + sequencing; frameworks hold sequencing errors
In short: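 Nanobodies came from a synthetic yeast display library in Saccharomyces cerevisiae BJ5465, induced with galactose for 36–48 hours and stained for 1 hour at 4 °C with 10% biotinylated, detergent-solubilized Sf9 membrane reagent. Cells were enriched on streptavidin microbeads and then FACS-sorted, with low and high (top ~1%) gates set on anti-HA fluorescence for expression and streptavidin fluorescence for reagent binding. Each polyreactivity label reflects the gate a clone came from. Genes were amplified by colony PCR, sequenced by MiSeq 2 × 250 and filtered by CDR length.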

Sequence	polyreactivity (PSR sort gate)
QVQLVESGGGLVQAGGSLRISCAASGFTLRVNAMGWYRQAPGKERELVAAISDSGGDTYYSNSVKGRFTISRDNAKNTVYLQMNSLKPEDTAVYYCAADDGSENDYWGQGTQVTVSS	low polyreactivity
QVQLVESGGGLVQAGGSLRISCAASGGIFFQNAMGWYRQAPGKERELVAAISWSAGSTYYADSVKGRFTISRDNAKNSVDLQMNRQKPEDTAVDSCAGRVGCGRAIDLYYYWGQGTQVTVSS	low polyreactivity
QVQLVESGGGLVQAGGSLRISCAASGGTFQPYAMGWYRQAPGKERELVAAITSSDGSTYYADSVKWRFTISRDNAKNTVYLQMNSLKPEDTAVYYCNATIASGYGDRYVDTSHDYWGQGTQVTVSS	low polyreactivity
QVQLVESGGGLVQAGGSLRISCAASGGTFRPNAKGWSRQAPGKERELVAAITRSGGSTYYADSVKGRFTISRDNAKNTVYLQRNSLKPEETAVYYCARDLREWGQGTQVTVSS	low polyreactivity
QVQLVESGGGLVQAGGSLRISCAASGIIFKGYAMGWYRQAPGKERELVAAISHNADSTYADSVKGRFTISRDNAKNTVYLQMNSLNPEDTAVYYCNADTPLRSDYWGQGTQVTVSS	low polyreactivity
QVQLVESGGGLVQAGGSLRISCAASGIIFRLNAMGWYRQAPGKERELVAAIRRRGGSTYYADSVKGRFTISRDNAKNTVYLQMNSLKPEDTAVYYCAKDPHGSDFGYWGQGTQVTVSS	low polyreactivity
QVQLVESGGGLVQAGGSLRISCAASGIIFVWNAIGWYRQAPGKERELVADISWSSGRTYYADSVKGRFTISRDNAKNTVYLQMNSLIPEDTAVYYCATDDFWNVIFYAYYPEFDYWGQGTQVTVSS	low polyreactivity
QVQLVESGGGLVQAGGSLRISCAASGITASNAMGWNRQAPGKERELVAAISCRGGRTYYADSVKGRFTISRDNAKNTVYLQMNSLKPEDTAVYYCAKRYYTAQSRSDYWGQGTQVTVSS	high polyreactivity
QVQLVESGGGLVQAGGSLRISCAASGITFQSNAMGWYRQAPGTERELVAGITGNGGSTYYADSVKGRFTISRDNAKNTVYLQMNSLKPEDTAVYYCNIGRRKRTRYDYWGQGTQGTVSS	high polyreactivity
QVQLVESGGGLVQAGGSLRISCAASGITLAKNAMGWYRQAPGKETELVAAISRRGGNTYYADSVKGRFTISRDNAKNTVYLQMNSLKPEDTAVYYCAVDYRSTGLGYWGQGTQVTVSS	high polyreactivity
QVQLVESGGGLVQAGGSLRISCAASGLIFRHNAMGWYRQAPGKERELVAAITGSGSTYYADSEKGRFTISRDNAKNTVYLQMNSLKPEDTAVYYGNADYPGGLQEEDYWGQGTQVTVSS	low polyreactivity
QVQLVESGGGLVQAGGSLRISCAASGLTFNAYAMGWYRQAPGKERELLADITTSDGSTFYADSVKGRFTISRDKATNTVYLQMNSLKPEDTAVYYCNADAYGWYSGPWFKWLLWYDYWGQGTQVTVSS	low polyreactivity
QVQLVESGGGLVQAGGSLRISCAASGLTFRRNAMGGYRQAPGKERELFAAITASGGSTYYADSVTGRFTISRDNAKNTVFLQMNSLKPEETAVYYSAAVNYRWYSRNYDHYYWGQGTQVTVSS	high polyreactivity
QVQLVESGGGLVQAGGSLRISCAASGLTFVYYTMGWYSQAPGKEREFVAGIDWSGGSTYYADSVKLRFTISRDNAKNTVYLQMNSLKPEDTAVYYCAAAVYYQYGVYRHDYWGQGTQVTVSS	low polyreactivity
QVQLVESGGGLVQAGGSLRISCAASGLTIVPNAMGWYRQAPGKERELVAAISNNGGRTYYADSVKGRFTISRDNAKNTVYLQMNSLKPEDTAVYYCAKYLSPGERHSYDYWGQGTQVTVSS	high polyreactivity
QVQLVESGGGLVQAGGSLRISCAASGNICSWYAMGWSRQAPGKERELVAAIRWSSGSTYYADSVKWRFTISRDNAKNTVYLQMNSMKPEDTAVYYCAAVIKGWGQGTQVTVSS	high polyreactivity
QVQLVESGGGLVQAGGSLRISCAASGNTFDYYTMGWYRQAPGKERDLVASIDWSTTTTYYADSVKGRFTISRDNAKTTVYLQMKSLKPEDTAVYYCNTVYDFYHLGLYSGFRYHYWGQGTQVTVSS	low polyreactivity
QVQLVESGGGLVQAGGSLRISCAASGRICAYNAMGWYRQAPGKERELVAAITWSGGTTYYADSVKGRCTISRDNAKNSVYFQRNSLKPEVTAVYYCAATVGAASRYYYWAQGTQVTVSS	high polyreactivity
QVQLVESGGGLVQAGGSLRISCAASGRIFDLYAMGWYRQPPGKERELVASISSDGSTNYADSVKGRFTISRDNAKNTVYLQMNSLKPEDTAVYYCATRKGRRYGYNYWGQGTQVTVSS	high polyreactivity
QVQLVESGGGLVQAGGSLRISCAASGRIFDRYVLGWYRQAPGKERELVAAISSGGSTYYADSVKGRFTISRDNAKNTVYLQMNSLKPEDTAVYYCAADRRSKYDYWGQGTQVTVSS	low polyreactivity
QVQLVESGGGLVQAGGSLRISCAASGRIFDYNVMGWYRQAPGKERELVAGISSGGSTYYADSVKGRFTISRDNAKNTVYLQMNSLKPEDTAVYYCAARGRPYRGYGYWGQGTQVTVSS	high polyreactivity
